Earlier results as cited in publication PMC8073936.
pKd: −log10 of the molar value.

Target: TRF1 (Homo sapiens) (UniProt P54274)
Sequence of UniProt P54274 (P54274 2-439): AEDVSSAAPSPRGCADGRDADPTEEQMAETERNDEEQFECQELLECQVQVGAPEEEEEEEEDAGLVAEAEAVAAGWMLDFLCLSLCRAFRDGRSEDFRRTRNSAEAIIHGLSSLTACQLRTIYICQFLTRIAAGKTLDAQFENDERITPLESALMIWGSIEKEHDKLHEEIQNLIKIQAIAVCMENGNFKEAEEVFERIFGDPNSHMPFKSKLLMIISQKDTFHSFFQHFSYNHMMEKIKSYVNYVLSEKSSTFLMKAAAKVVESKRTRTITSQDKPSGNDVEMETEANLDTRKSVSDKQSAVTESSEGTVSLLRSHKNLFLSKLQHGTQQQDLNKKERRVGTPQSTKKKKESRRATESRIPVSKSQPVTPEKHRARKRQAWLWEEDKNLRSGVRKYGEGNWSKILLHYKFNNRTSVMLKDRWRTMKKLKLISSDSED

pKd: 9.40
Substance: Ku70/80 (from UniProt P12956)
